In patent publication US20210206832A1 (Regeneron, published 2021):

Assays:
[1] = target: T1, recombinant VEGF MiniTrap (dimer) MT5 (human); assay: affinity chromatography on the mAb1 column, repeated run, 19.7 mg MT5 loaded
T1 construct: also called VEGF MiniTrap 5
T1 chain: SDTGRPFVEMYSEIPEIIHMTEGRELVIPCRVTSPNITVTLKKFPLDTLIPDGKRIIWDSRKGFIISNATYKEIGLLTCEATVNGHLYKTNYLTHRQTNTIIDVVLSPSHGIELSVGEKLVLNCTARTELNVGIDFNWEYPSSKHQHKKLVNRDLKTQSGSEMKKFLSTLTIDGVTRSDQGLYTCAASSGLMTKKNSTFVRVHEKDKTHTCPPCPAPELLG

[2] = target: T1, recombinant VEGF MiniTrap (dimer) MT5; assay: affinity chromatography on the mAb1 column, repeated run, 19.6 mg MT5 loaded

Eluate [1]: 1.8 mg | Eluate [2]: 2 mg
B1: mAb1 (a mouse anti-VEGFR1 mAb human IgG1) (antibody)
heavy: not shown
light: DIQMTQSPSSLSASLGGKVTITCTTSQDSNNYIAWYQHKPGKGPRLLIHYASTLQPGIPSRFSGSGSGRDYSFSISNLEPEDIATYFCLQYDYLWTFGGGTKLELKRTVAAPSVFIFPPSDEQLKSGTASVVCLLNNFYPREAKVQWKVDNALQSGNSQESVTEQDSKDSTYSLSSTLTLSKADYEKHKVYACEVTHQGLSSPVTKSFNRGEC
